Molecular target: membrane bound human OX40L on CHO-KI cells (human) (UniProt P23510)
Test: cell-based or functional assay

Sequence of membrane bound human OX40L on CHO-KI cells (human) (P23510 whole entry): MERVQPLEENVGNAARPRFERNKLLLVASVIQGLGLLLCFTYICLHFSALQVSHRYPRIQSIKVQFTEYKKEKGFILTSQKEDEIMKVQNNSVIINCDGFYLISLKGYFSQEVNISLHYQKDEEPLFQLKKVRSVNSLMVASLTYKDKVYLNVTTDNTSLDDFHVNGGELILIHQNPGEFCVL

B1: ISVD construct F027100172 (protein, part only; not given: anti-IL-13 building blocks, part only)
chain, part: DVQLVESGGGVVQPGGSLRLSCAASRSIGRYDRMGWYRHRPGEPRELVATITGGSSINYGDSVKGRFTISIDNSKNTVYLQMNSLRPEDTALYYCNFNKYQISRDTWGQGTLVTVSSGGGGSGGGSGGGGSGGGSEVQLVESGGGVVQPGGSLRLSCAASGFTFRSFGMSWVRQAPGKGPEWVSSISGSGSDTLYADSVKGRFTISRDNSKNTLYLQMNSLRPEDTALYYCTIGGSLSRSSQGTLVTVSSGGGGSGGGS
PBMC activity assay IC50: 2.5 nM | fold better potency in the OX40L-driven PBMC activity assay against the non-affinity matured counterpart (15B07): 20 fold | fold better potency in the PBMC activity assay against F-027100179: 10 fold

Source: US20220153854A1
